Here are results for three molecules from patent publication US20090124537A1.

Bridges are numbered along the chain shown (N, C = ends). Where no end group is shown, it is not given here.

The target of test [1] is BMP-7 receptor of ROS cell plasma membrane fraction (ROS cell type II BMP receptor) (rat). Kind of test: cell-based or functional assay.
For test [2] the target is unchanged. Kind of test: radioligand receptor assay, displacement of 125I-BMP-7 from ROS cell plasma membranes. On the technique in general: Loss of bound radioactivity is the signal in a displacement assay; it reports binding, not function.
Test [3] shares this target. Kind of test: radioligand receptor assay, 125I-BMP-7 on ROS cell plasma membranes.

Take CFRDLGWQDWIIAPC (disulfide 1-15 (inferred)) [F1-2]: the 50% inhibition of the cell responsive to BMP-7 (ROS cell alkaline phosphatase assay) in test [1] amounted to 10 µM. Also, the concentration required to inhibit the binding of 125I-labeled BMP-7 in test [2] worked out at 179 µM.

In general, IC50 refers to the concentration that inhibits the measured activity by half. In the case of CYFDDSSNVIC (disulfide 1-11 (inferred)) [F2-2], in test [1], the potentiation of BMP-7 induced cell responsiveness at 0.6-60 µM peptide (ROS cell alkaline phosphatase assay) amounted to 20%. Moreover, the IC50 in test [2] worked out at 1000 nM.

As to CCFINPETVCC (cyclized (disulfide bond between cysteines)) [H-2C], the peptide concentration that potentiated the binding of 125I-labeled BMP-7 in test [3] is 8 µM. The 50% inhibition of cellular responsiveness to BMP-7 (ROS cell alkaline phosphatase assay) in test [1] came out at 5 µM.
